Results reported in article PMC5425828.

Molecular target: T1, Sco1678 (GntR-His) (Streptomyces coelicolor M145) (UniProt Q9AD89)
T1 sequence: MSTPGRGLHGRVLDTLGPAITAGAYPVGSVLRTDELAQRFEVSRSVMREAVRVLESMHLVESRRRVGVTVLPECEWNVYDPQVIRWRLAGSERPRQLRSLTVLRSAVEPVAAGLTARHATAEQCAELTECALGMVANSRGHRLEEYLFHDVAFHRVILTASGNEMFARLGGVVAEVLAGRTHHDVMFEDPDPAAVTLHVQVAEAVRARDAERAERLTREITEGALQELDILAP
Assay: EMSA
Conditions: 20 mM Tris/HCl pH 7.5, 50 mM KCl, 10 mM MgCl2, 5% (v/v) glycerol, 0.5 mM EDTA, 25 min at 25 C; 0.2 pmol Cy5 probe, 0.93-4.18 pmol protein; 8% native PAGE, 1x …

| Sequence | binding |
| --- | --- |
| AGCCAGTGGCGATAAGGTTGCTGCATCGCACTCTCGCTGTCTGCTGTCTTCGTCGACACCTGATGTCGACGCAACTGAAACTCATTAGTACGACAACTTCAAGAGTCTGTGACGTATAAGTCTGACTTTTTGTTCCCGTGACATGCCCCGTACGCTGAGTGCATGAGCACACCGGGCCGGGGGCTGCACGGCCGCGTACTGGACACCCTCGGCCCCGCGATCACAGCTTATCGCCACTGGCT (double strand) [gntR-gntK intergeneric region] | binds |
| AGCCAGTGGCGATAAGCGTCGTACTCCTGTTCCTGCCGGCCGGTGCGTGGTGCGGCTATATGACCAGGGACAACAGCAGGACCAGGGCACCGGCGACCACCGAGATGATCGTCTCCATGACGGACCAGGTCTTGATGGTCTGCCCCACGTTCAGCCCGAAGTACTCCTTCACCAGCCAGCTTATCGCCACTGGCT (double strand) [gntZ promoter region] | no binding |
